Data set [1] has as its target T1, E2F4 1-180 (UniProt Q16254 1-180). The data set can be described thus: SPR; random control DNA; SPR: Biacore X100, SA chip, DNA in PBS (137 mM NaCl, 2.7 mM KCl, 10 mM Na2HPO4, 2 mM KH2PO4, pH 7.4), protein 10-320 nM (Fig. S3D legend prints mM); ITC: 250 mM NaCl, 50 mM Tris-HCl pH 7.5; EMSA: Beyotime kit, 6% native gel; temperatures not stated. To be noted: protein: recombinant; tags: His (pET28a); chain copies: 2; label: 5'-biotin on sense strand; blunt. (In general: In SPR one partner is held on a chip, and binding of the other changes the refractive index at the surface.)

Data set [2] has as its target T1, E2F4 1-180. The data set can be described thus: SPR; SPR: Biacore X100, SA chip, DNA in PBS (137 mM NaCl, 2.7 mM KCl, 10 mM Na2HPO4, 2 mM KH2PO4, pH 7.4), protein 10-320 nM (Fig. S3D legend prints mM); ITC: 250 mM NaCl, 50 mM Tris-HCl pH 7.5; EMSA: Beyotime kit, 6% native gel; temperatures not stated. The settings on record: protein: recombinant; tags: His (pET28a); chain copies: 2; label: 5'-biotin on sense strand; blunt.

The target of data set [3] is T2, E2F4 1-88 (UniProt Q16254 1-88). The data set can be described thus: ITC; SPR: Biacore X100, SA chip, DNA in PBS (137 mM NaCl, 2.7 mM KCl, 10 mM Na2HPO4, 2 mM KH2PO4, pH 7.4), protein 10-320 nM (Fig. S3D legend prints mM); ITC: 250 mM NaCl, 50 mM Tris-HCl pH 7.5; EMSA: Beyotime kit, 6% native gel; temperatures not stated. To be noted: protein: recombinant; tags: GST removed with 3C protease (ITC methods); pET28 His construct also described; chain copies: 2; blunt.

Data set [4] deals with T2, E2F4 1-88. The data set can be described thus: ITC; error exceeds value; SPR: Biacore X100, SA chip, DNA in PBS (137 mM NaCl, 2.7 mM KCl, 10 mM Na2HPO4, 2 mM KH2PO4, pH 7.4), protein 10-320 nM (Fig. S3D legend prints mM); ITC: 250 mM NaCl, 50 mM Tris-HCl pH 7.5; EMSA: Beyotime kit, 6% native gel; temperatures not stated. The settings on record: protein: recombinant; tags: GST removed with 3C protease (ITC methods); pET28 His construct also described; chain copies: 2; blunt. Background: In ITC the heat of successive injections is recorded.

Kd data for four molecules are collected here from paper PMC8692152, “Cellular Id1 inhibits hepatitis B virus transcription by interacting with the novel covalently closed circular DNA-binding protein E2F4”.

T1 sequence (Q16254 1-180): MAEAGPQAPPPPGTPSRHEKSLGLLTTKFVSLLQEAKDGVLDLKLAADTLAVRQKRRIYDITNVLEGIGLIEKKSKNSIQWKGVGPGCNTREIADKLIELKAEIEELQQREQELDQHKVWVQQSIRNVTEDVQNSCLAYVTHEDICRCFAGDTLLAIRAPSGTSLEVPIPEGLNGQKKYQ
T2 sequence (Q16254 1-88): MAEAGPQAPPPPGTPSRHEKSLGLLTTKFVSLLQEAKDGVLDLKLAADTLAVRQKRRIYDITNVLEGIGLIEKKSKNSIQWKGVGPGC

B1: Control-DNA-biotin (SPR) (dsDNA)
DNA 1: ATGATGTCACCACAAGAAGT
DNA 2: ACTTCTTGTGGTGACATCAT
The term Kd denotes the free concentration of one partner at which half of the binding sites on the other are occupied at equilibrium, for simple one-to-one binding. Regarding B1, the dissociation constant Kd in the data set with E2F4 1-180 [1] was 0.136 µM.

B2: Biotin-Cp2 (SPR) (dsDNA)
DNA 1: TTAGATTAAAGGTCTTTGT
DNA 2: ACAAAGACCTTTAATCTAA
With B2, in the data set with E2F4 1-180 [2], the Kd is 0.0878 µM.

B3: Cp2 (ITC) (dsDNA)
DNA 1: TTAGATTAAAGGTCTTTGT
DNA 2: ACAAAGACCTTTAATCTAA
On to B3, for which, in the data set with E2F4 1-88 [3], the Kd turned out to be 10.3 ± 4.37 µM.

B4: Cp2-mut (ITC) (dsDNA)
DNA 1: TTAGATTAAATTTCTTTGT
DNA 2: ACAAAGAAATTTAATCTAA
In the case of B4, the Kd with E2F4 1-88 [4] was 19.6 ± 31.2 µM.
